Measured values reported in patent US20170037425A1, “METHOD FOR IMPROVING PLANT TRAIT” (SHANGHAI INSTITUTES FOR BIOLOGICAL SCIENCES, CHINESE …, priority 2012, published 2017).

B1: efofCP/RFP: protein from Echinopora forskaliana (EU498726), SEQ ID NO: 34 (protein, listed as Echinopora forskaliana)
chain: MSVIKQVMKTKLHLEGTVNGHDFTIEGKGEGKPYEGLQHMKMTVTKGAPLPFSVHILTPSHMYGSKPFNKYPADIPDYHKQSFPEGMSWERSMIFEDGGVCTASNHSSINLQENCFIYDVKFHGVNLPPDGPVMQKTIAGWEPSVETLYVRDGMLKSDTAMVFKLKGGGHHRVDFKTTYKAKKPVKLPEFHFVEHRLELTKHDKDFTTWDQQEAAEGHFSPLPKALP
B2: efasCFP: cyan fluorescent protein from Eusmilia fastigiata (DQ206397), SEQ ID NO: 36 (protein, listed as Echinopora forskaliana)
chain: MSFSKQVLNDVTMTYFMEGSVNGHDFTIEGEGTGKPYEGHQRFNLRVTKGAPLPFAVDILSAAFAYGNRCFTKYPKEIPDFFKQSLPEDMSWERTMTFEDGGIVAISAHIRLIGNRFEHKSKFVGVNFPADGPVMQRKTLGWEPSSEKMTPRDGILKGYVPSFLVLQGGGNYRCDYDTSYRAMKPVEMPGGHFIQHRIVRRDIKKDSNGNTWQIQEDAFAHNSEVPDSA
B3: spisCP: non-fluorescent chromoprotein from Stylophora pistillata (DQ206398), SEQ ID NO: 38 (protein, listed as Echinopora forskaliana)
chain: MSHSKQALADTMKMTWLMEGSVNGHAFTIEGEGTGKPYEGKQSGTFRVTKGGPLPFAFDIVAPTLKYGFKCFMKYPADIPDYFKLAFPEGLTYDRKIAFEDGGCATATVEMSLKGNTLVHKTNFQGGNFPIDGPVMQKRTLGWEPTSEKMTPCDGIIKGDTIMYLMVEGGKTLKCRYENNYRANKPVLMPPSHFVDLRLTRTNLDKEGLAFKLEEYAVARVLEV
B4: scubGFP: green fluorescent protein from Scolymia cubensis (AY037767), SEQ ID NO: 40 (protein, listed as Echinopora forskaliana)
chain: MQRAGMKVKEHMKIKLRMGGTVNGKHFAVNGTGDGYPYQGKQILKLIVEGSEPLPFAFDILSAAFQYGNRAFTEYPTEIADYFKQSFEFGEGFSWERSFTFEDGAICVATNDITMVGGEFQYDIRFDGLNFPEDGPVMQKKTVKWEPSTEIMYMQNGVLKGEVNMALLLQDKSHYRCDLKTTYKAKNNVPHPPGYHYVDHCIEILEERKDHVKLREHAKARSSLSPTSAKERKA
B5: rfloRFP: red fluorescent protein from Ricordea florida (AY037773), SEQ ID NO: 42 (protein, listed as Ricordea florida)
chain: MSALKEEMKIKLTLVGVVNGHPFKIIGDGKGKPYEGSQELTLAVVEGGPLPFSYDILTTIVHYGNRAFVNYPKDIPDIFKQTCSGPGAGYSWQRTMSFEDGGVCTATSHIRVDGDTFNYDIHFMGADFPLNGPVMQKRTVKWEPSTEIMFQCDGLLRGDVAMSLLLKGGGHYRCDFKTIYKPKKNVKMPGYHFVDHCIEITSQQDDYNVVELYEGAVAHYSPLQKPCQAKA
B6: rmueGFP: green fluorescent protein from Renilla muelleri (AY015996), SEQ ID NO: 44 (protein, listed as Renilla muelleri)
chain: MSKQILKNTCLQEVMSYKVNLEGIVNNHVFTMEGCGKGNILFGNQLVQIRVTKGAPLPFAFDIVSPAFQYGNRTFTKYPNDISDYFIQSFPAGFMYERTLRYEDGGLVEIRSDINLIEDKFVYRVEYKGSNFPDDGPVMQKTILGIEPSFEAMYMNNGVLVGEVILVYKLNSGKYYSCHMKTLMKSKGVVKEFPSYHFIQHRLEKTYVEDGGFVEQHETAIAQMTSIGKPLGSLHEWV
B7: ceriantRFP: red fluorescent protein from Cerianthus sp. DW-2003 (AY296063), SEQ ID NO: 46 (protein, listed as Cerianthus sp.)
chain: MNLSKNVSVSVYMKGNVNNHEFEYDGEGGGDPYTGKYSMKMTLRGQNCLPFSYDIITTAFQYGFRVFTKYPEGIVDYFKDSLPDAFQWNRRIVFEDGGVLNMSSDITYKDNVLHGDVWAVGVNFPPNGPVMKNEIVMEEPTEETFTPKNGVLVGFCPKAYLLKDGSYYYGNMTTFYRSKKSGQAPPGYHFVKHRLVKTNVGHGFKTVEQTEYATAHVSDLPK
B8: anm2CP: chromoprotein from Anthomedusae sp. SL-2003 (AY485336), SEQ ID NO: 48 (protein, listed as Anthomedusae sp.)
chain: MEGGPALFQSDMTFKIFIDGVVNDQKFTIIADGSSKFPHGDFNVHAVCETGKLPMSWKPICHLIQYGEPFFAKYPNGISHFAQECFPEGLTIDRTVRFENDGTMTSHHTYELDGTCVISRITVNCDGFQPDGPIMKDQLVDILPTETHMFPHGSNAVRQLCYIGFTTADGGLMMSHFDSKLTFNGSRAIKIPGPHFVTVIIKQMKDTSDKRDHVCQREVTYAHSVPRITSAI
B9: phiYFP: yellow fluorescent protein from Phialidium sp. SL-2003 (AY485333), SEQ ID NO: 50 (protein)
chain: MSSGALLFHGKIPYVVEMEGNVDGHTFSIRGKGYGDASVGKVDAQFICTTGDVPVPWSTLVTTLTYGAQCFAKYGPELKDFYKSCMPEGYVQERTITFEGDGVFKTRAEVTFENGSVYNRVKLNGQGFKKDGHVLGKNLEFNFTPHCLYIWGDQANHGLKSAFKIMHEITGSKEDFIVADHTQMNTPIGGGPVHVPEYHHITYHVTLSKDVTDHRDNMSLVETVRAVDCRKTYL
modifications: Aequorea Victoria
B10: cpGFP: green fluorescent protein from Chiridius poppei (AB185173), SEQ ID NO: 52 (protein, listed as Chiridius poppei)
chain: MTTFKIESRIHGNLNGEKFELVGGGVGEEGRLEIEMKTKDKPLAFSPFLLSHCMGYGFYHFASFPKGTKNIYLHAATNGGYTNTRKEIYEDGGILEVNFRYTYEFNKIIGDVECIGHGFPSQSPIFKDTIVKSCPTVDLMLPMSGNIIASSYARAFQLKDGSFYTAEVKNNIDFKNPIHESFSKSGPMFTHRRVEETHTKENLAMVEYQQVFNSAPRDM
B11: hcriCP: chromoprotein from Heteractis crispa (AF363776), SEQ ID NO: 32 (protein)
chain: MAGLLKESMRIKMYMEGTVNGHYFKCEGEGDGNPFTGTQSMRIHVTEGAPLPFAFDILAPCCEYGSRTFVHHTAEIPDFFKQSFPEGFTWERTTTYEDGGILTAHQDTSLEGNCLIYKVKVLGTNFPADGPVMKNKSGGWEPCTEVVYPENGVLCGRNVMALKVGDRRLICHLYTSYRSKKAVRALTMPGFHFTDIRLQMPRKKKDEYFELYEASVARYSDLPEKAN
modifications: Entacmaea quadricolor

assay: In vitro H2O hydrolysis and oxygen evolution catalyzed by LEAT protein under light; type: biochemical; set-up: key to O2 evolution activity: +: similar O2 evolution activity as that of YFP; ++: higher O2 evolution activity than that of YFP by at least one order of magnitude; weak: lower activity than that of YFP by at least one order of magnitude; settings: water hydrolysis and O2 evolution under light, relative to YFP
Protocol: 1.85 ml of 50 mM phosphate buffer (pH6.5) was added in the reaction vessel of Clark-type oxygen electrode, then LEAT proteins (at a final concentration of 0.02-1 μg/ml) and 400 μM 2,3,5-trimethyl-1,4-benzoquinone (TMBQ) or other quinones were sequentially added into the buffer in dark. The oxygen evolution rate was measured under the light with corresponding excitation wave length for LEAT proteins and light intensity at 1-2 μmol m^−2 s^−1.

**Q.** For B1, which O2 evolution activity is on record?
**A.** Its O2 evolution activity is “+”.

**Q.** For B2, which O2 evolution activity is on record?
**A.** Its O2 evolution activity is “+”.

**Q.** For B3, which O2 evolution activity is on record?
**A.** Its O2 evolution activity is “++”.

**Q.** Which O2 evolution activity does the source give for B4 here?
**A.** Its O2 evolution activity is “+”.

**Q.** With B5 as the molecule, how does the O2 evolution activity read?
**A.** The O2 evolution activity was “++”.

**Q.** With B6 as the molecule, how does the O2 evolution activity read?
**A.** Its O2 evolution activity is “++”.

**Q.** For B7, which O2 evolution activity is on record?
**A.** The O2 evolution activity was “++”.

**Q.** Which O2 evolution activity does the source give for B8 here?
**A.** Its O2 evolution activity is “+”.

**Q.** With B9 as the molecule, how does the O2 evolution activity read?
**A.** The O2 evolution activity was “++”.

**Q.** With B10 as the molecule, how does the O2 evolution activity read?
**A.** The O2 evolution activity was “+”.

**Q.** Which O2 evolution activity does the source give for B11 here?
**A.** Its O2 evolution activity is “+”.
